Measurements as given in US20050090447A1, “Peptides that promote complement activation” (Baxter International Inc., priority 2003, published 2005).
Bridge positions count the residues as written; N and C are the ends. Ends that are not written are not given here.

How the values were obtained:
C5 = target: T1, C5 (Homo sapiens, UniProt P01031); experiment: Phage clone binding to biotinylated C5 (neutravidin capture, anti-M13 antibody detection); settings: phage clones, FIG. 1
T1 construct: purchased Advanced Research Technologies
T1 sequence (P01031 19-1676): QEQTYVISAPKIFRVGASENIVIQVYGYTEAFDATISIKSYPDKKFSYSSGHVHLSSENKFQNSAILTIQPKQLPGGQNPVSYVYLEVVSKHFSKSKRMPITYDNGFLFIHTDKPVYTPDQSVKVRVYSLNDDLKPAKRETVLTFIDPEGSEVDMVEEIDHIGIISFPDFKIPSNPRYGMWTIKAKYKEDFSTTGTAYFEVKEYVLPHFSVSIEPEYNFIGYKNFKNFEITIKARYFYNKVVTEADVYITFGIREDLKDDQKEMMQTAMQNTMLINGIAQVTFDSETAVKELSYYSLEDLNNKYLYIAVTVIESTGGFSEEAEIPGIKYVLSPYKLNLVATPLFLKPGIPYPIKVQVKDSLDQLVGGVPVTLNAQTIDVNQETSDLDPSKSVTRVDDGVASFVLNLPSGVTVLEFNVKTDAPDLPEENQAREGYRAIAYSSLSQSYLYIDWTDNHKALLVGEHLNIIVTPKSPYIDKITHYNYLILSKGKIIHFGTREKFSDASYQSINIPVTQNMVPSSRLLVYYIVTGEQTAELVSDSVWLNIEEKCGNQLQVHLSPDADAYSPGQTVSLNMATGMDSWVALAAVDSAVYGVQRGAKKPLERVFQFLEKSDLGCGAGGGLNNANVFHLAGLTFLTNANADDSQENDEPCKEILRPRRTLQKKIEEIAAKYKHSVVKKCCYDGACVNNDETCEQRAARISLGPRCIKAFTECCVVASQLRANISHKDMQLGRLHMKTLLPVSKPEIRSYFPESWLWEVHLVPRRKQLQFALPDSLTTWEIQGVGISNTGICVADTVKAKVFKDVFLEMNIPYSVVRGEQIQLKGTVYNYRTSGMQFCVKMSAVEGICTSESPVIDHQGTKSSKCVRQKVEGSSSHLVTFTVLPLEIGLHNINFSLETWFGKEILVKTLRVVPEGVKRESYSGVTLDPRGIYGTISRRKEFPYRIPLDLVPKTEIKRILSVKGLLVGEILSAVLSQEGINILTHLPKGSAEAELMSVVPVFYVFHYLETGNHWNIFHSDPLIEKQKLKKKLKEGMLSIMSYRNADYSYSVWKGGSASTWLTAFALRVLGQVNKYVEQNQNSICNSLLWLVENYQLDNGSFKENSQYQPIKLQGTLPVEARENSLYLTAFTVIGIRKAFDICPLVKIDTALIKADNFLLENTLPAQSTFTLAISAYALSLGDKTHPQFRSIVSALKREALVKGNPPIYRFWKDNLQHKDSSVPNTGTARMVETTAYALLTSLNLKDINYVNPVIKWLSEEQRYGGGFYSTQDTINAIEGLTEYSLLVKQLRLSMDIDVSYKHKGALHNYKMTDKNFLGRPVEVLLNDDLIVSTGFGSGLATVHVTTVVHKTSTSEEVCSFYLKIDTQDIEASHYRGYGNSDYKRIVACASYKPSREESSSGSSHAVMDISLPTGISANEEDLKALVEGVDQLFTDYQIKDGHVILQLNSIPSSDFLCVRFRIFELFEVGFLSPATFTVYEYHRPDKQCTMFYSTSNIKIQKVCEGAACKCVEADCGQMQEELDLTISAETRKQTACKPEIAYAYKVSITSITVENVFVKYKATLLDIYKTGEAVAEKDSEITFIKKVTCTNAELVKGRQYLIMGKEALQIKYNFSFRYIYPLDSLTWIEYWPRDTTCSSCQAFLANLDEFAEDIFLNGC
Method: FIG. 1 is a bar graph depicting the binding of peptide #1, peptide #2, and peptide #3 to C5. […] Wild-type M13 phage without a peptide fused to the pill protein was used as a negative control for this assay.
To confirm that Peptides 1, 2, and 3 (Sequence I. D. Nos:1, 2, and 3, respectively) bind C5, the phage clones were tested in a binding assay with increasing amounts of phage incubated with constant biotinylated C5, captured on a neutravidin plate and detected with an anti-phage antibody. Increasing concentrations of each phage clone were incubated for 2 hours with 200 ng of biotinylated C5 in PBS containing 0.5% BSA. The phage bound C5 complex was captured on a neutravidin coated microplate for 20 minutes at room temperature and then washed well. A peroxidase labeled anti-M13 antibody (Pharmacia) was used to detect the amount of phage bound to C5 with OPD substrate.

[1] = system: E. coli strain 07:K1:NM (ATCC 23503); experiment: Bactericidal assay, complement-mediated killing in pooled human plasma, colony count; type: cell-based; settings: 100 uM peptide, one hour 37° C.; plasma alone 71%
Method: FIG. 4 is a bar graph depicting bacteriocidal activity of peptides against E. coli O7:K1:NM. Controls were run with plasma alone, complement inactivated (heat inactivated) plasma, and PBS/0.5% BSA.
The ability of Peptides 1- 3 to enhance complement-mediated killing of bacteria was examined. A virulent strain of E. coli that was chosen for the assays. E. coli strain 07:K1:NM (ATCC 23503), a strain less susceptible to complement mediated killing than most strains of E. coli, were grown in LB media to an optical density (OD) at 600 nm between 0.3 to 0.4 at 37° C. The cells were washed and resuspended in PBS containing 0.5% BSA and the concentration of cells determined from the OD at 600 nm. The cells were diluted in PBS/0.5% BSA to a concentration of 2×10^5 cfu/mL and 100 ul of cells were added to 100 ul of pooled human plasma containing 100 uM of peptide. The sample was incubated for one hour at 37° C. 10 ul aliquots were removed before and after the incubation and bacterial survival was examined by the colony count method (counting cells on LB agar before and after incubation). Heat inactivated plasma (56° C., 30 min.), plasma with no peptide, and PBS/0.5% BSA were also incubated with the cells as controls.

classical pathway = experiment: Classical pathway hemolytic assay, antibody sensitized sheep erythrocytes in pooled human plasma; type: cell-based; settings: disulfide bond reduced and cysteines alkylated; data not shown
Method: FIGS. 2A and 2B are bar graphs depicting percent hemolysis above control versus peptide concentration with peptides 1, 2, and 3 for classical pathway activation (FIG. 2A), and alternative pathway activation (FIG. 2B). Percent hemolysis above control is the percent lysis of erythrocytes for each peptide concentration minus the lysis of erythrocytes in the absence of peptide.
Activation of the classical and alternative pathway by the peptides was measured using standard hemolysis assays. For the classical pathway various concentrations of peptide were incubated with 50 ul pooled human plasma (diluted 1:30 with GVB++), 5×10^7 antibody sensitized sheep erythrocyte cells, and GVB++buffer to a final volume of 200 ul. The reaction was incubated at 37° C. for one hour and centrifuged. The percentage of lysis was determined by measuring the optical density of the supernatant at 414 nm. […] Lysis of the erythrocytes was not observed when the peptides were incubated in the absences of a source of complement (plasma). The peptides altered the activity of the complement protein(s) and increased the level of activation of the complement cascade resulting in an increase in hemolysis. Furthermore, when the disulfide bond of peptide 2 was reduced and the cysteines alkylated, enhancement of erythrocyte lysis was reduced (data not shown).

Row | Sequence | relative affinity for C5 (rank order) (C5) | bacterial survival [1] | enhancement of erythrocyte lysis (classical pathway)
1 | CLSAHHHMC (YCLSAHHHMCGGG; disulfide 2-10 (inferred)) [Peptide 1, synthetic form has added N terminal tyrosine and three C terminal glycines] | tightest relative affinity | 23% | –
2 | CPGKASPWC (YCPGKASPWCGGG; disulfide 2-10 (inferred)) [Peptide 3, synthetic form has added N terminal tyrosine and three C terminal glycines] | then Peptide 3 | – | –
3 | CPSSPPHMC (YCPSSPPHMCGGG; disulfide 2-10 (inferred)) [Peptide 2, synthetic form has added N terminal tyrosine and three C terminal glycines] | followed by Peptide 2 | – | reduced
